The assay has as its target Omicron RBD (SARS-CoV-2 Omicron BA.1 (B.1.1.529), S371L | S373P | S375F | K417N | G446S | S477N | E484A | Q493R | G496S | Q498R | …). Description: SPR. As to conditions: both partners purified.

B1: S304 antibody (IgG1) (antibody, V domains shown)
VH: EVQLVESGGGLVQPGGSLRLSCAASGFTFSSYDMHWVRQTTGKGLEWVSTIGTAGDTYYPDSVKGRFTISREDAKNSLYLQMNSLRAGDTAVYYCARGDSSGYYYYFDYWGQGTLLTVSS
VL: DIQMTQSPSSLSAAVGDRVTITCRASQSIGSYLNWYQQKPGKAPKLLIYAASSLQSGVPSRFSGSGSGTDFTLTISSLQPEDFAIYYCQQSYVSPTYTFGPGTKVDIK
notes: IgG1
By Kd is commonly meant the free concentration of one partner at which half of the binding sites on the other are occupied at equilibrium, for simple one-to-one binding. Read a high Kd as lower affinity. As for B1, the Kd came out at 1.01 nM.

Source of the values: publication PMC9399999 (Nature Communications, 2022).
